Source: US20240019424A1

Legend:
[1] = biological target: biotinylated single chain human FcRn (beta-2-microglobulin-human FcRn fusion polypeptide with (GGGGS)4-peptidic linker and C-terminal His(10)-Avi-tag) (human) (UniProt P61769); assay: SPR, C1 chip, scFcRn about 80 RU, Interaction Map spot; 150 mM NaCl; intramolecular binding 1+2
[2] = biological target: biotinylated single chain human FcRn (beta-2-microglobulin-human FcRn fusion polypeptide with (GGGGS)4-peptidic linker and C-terminal His(10)-Avi-tag) (human) (UniProt P61769); assay: SPR, C1 chip, scFcRn about 80 RU, Interaction Map spot; 400 mM NaCl; intramolecular binding 1+2
[3] = biological target: biotinylated single chain human FcRn (beta-2-microglobulin-human FcRn fusion polypeptide with (GGGGS)4-peptidic linker and C-terminal His(10)-Avi-tag) (human) (UniProt P61769); assay: SPR, C1 chip, scFcRn about 80 RU, Interaction Map spot; 400 mM NaCl; intramolecular binding 1+2+1+2
[4] = biological target: biotinylated single chain human FcRn (beta-2-microglobulin-human FcRn fusion polypeptide with (GGGGS)4-peptidic linker and C-terminal His(10)-Avi-tag) (human) (UniProt P61769); assay: SPR, C1 chip, scFcRn about 80 RU, Interaction Map spot; 150 mM NaCl; intermolecular binding 1+1′
[5] = biological target: biotinylated single chain human FcRn (beta-2-microglobulin-human FcRn fusion polypeptide with (GGGGS)4-peptidic linker and C-terminal His(10)-Avi-tag) (human) (UniProt P61769); assay: SPR, C1 chip, scFcRn about 80 RU, Interaction Map spot; 400 mM NaCl; intermolecular binding 1+1′
[6] = biological target: biotinylated single chain human FcRn (beta-2-microglobulin-human FcRn fusion polypeptide with (GGGGS)4-peptidic linker and C-terminal His(10)-Avi-tag) (human) (UniProt P61769); assay: SPR, C1 chip, scFcRn about 80 RU, Interaction Map spot; 150 mM NaCl; intramolecular binding 1+2+1+2
[7] = biological target: biotinylated single chain human FcRn (beta-2-microglobulin-human FcRn fusion polypeptide with (GGGGS)4-peptidic linker and C-terminal His(10)-Avi-tag) (human) (UniProt P61769); assay: SPR, C1 chip, scFcRn about 80 RU, Interaction Map spot; 150 mM NaCl; intermolecular binding 1+2′
[8] = biological target: biotinylated single chain human FcRn (beta-2-microglobulin-human FcRn fusion polypeptide with (GGGGS)4-peptidic linker and C-terminal His(10)-Avi-tag) (human) (UniProt P61769); assay: SPR, C1 chip, scFcRn amine-coupled about 80 RU, antibody as analyte, Interaction Map spot; 150 mM NaCl; intramolecular (FIG. 16 spot 1)
[9] = biological target: biotinylated single chain human FcRn (beta-2-microglobulin-human FcRn fusion polypeptide with (GGGGS)4-peptidic linker and C-terminal His(10)-Avi-tag) (human) (UniProt P61769); assay: SPR, C1 chip, scFcRn amine-coupled about 80 RU, antibody as analyte, Interaction Map spot; 150 mM NaCl; intermolecular (FIG. 16 spot 2)
[10] = biological target: biotinylated single chain human FcRn (beta-2-microglobulin-human FcRn fusion polypeptide with (GGGGS)4-peptidic linker and C-terminal His(10)-Avi-tag) (human) (UniProt P61769); assay: SPR, C1 chip, scFcRn about 80 RU, Interaction Map spot; 400 mM NaCl; intermolecular
[11] = biological target: biotinylated single chain human FcRn (beta-2-microglobulin-human FcRn fusion polypeptide with (GGGGS)4-peptidic linker and C-terminal His(10)-Avi-tag) (human) (UniProt P61769); assay: SPR, C1 chip, scFcRn about 80 RU, Interaction Map spot; 400 mM NaCl; intramolecular
[12] = biological target: biotinylated single chain human FcRn (beta-2-microglobulin-human FcRn fusion polypeptide with (GGGGS)4-peptidic linker and C-terminal His(10)-Avi-tag) (human) (UniProt P61769); assay: SPR, scFcRn on C1 chip, Interaction Map spot; 400 mM NaCl; intermolecular
[13] = biological target: biotinylated single chain human FcRn (beta-2-microglobulin-human FcRn fusion polypeptide with (GGGGS)4-peptidic linker and C-terminal His(10)-Avi-tag) (human) (UniProt P61769); assay: SPR, scFcRn on C1 chip, Interaction Map spot; 400 mM NaCl; intramolecular
[14] = biological target: biotinylated single chain human FcRn (beta-2-microglobulin-human FcRn fusion polypeptide with (GGGGS)4-peptidic linker and C-terminal His(10)-Avi-tag) (human) (UniProt P61769); assay: SPR, scFcRn on C1 chip, Interaction Map spot; 150 mM NaCl; intermolecular (FIG. 16 spot 2)
[15] = biological target: biotinylated single chain human FcRn (beta-2-microglobulin-human FcRn fusion polypeptide with (GGGGS)4-peptidic linker and C-terminal His(10)-Avi-tag) (human) (UniProt P61769); assay: SPR, scFcRn on C1 chip, Interaction Map spot; 150 mM NaCl; intramolecular (FIG. 16 spot 1)
[16] = biological target: biotinylated single chain human FcRn (beta-2-microglobulin-human FcRn fusion polypeptide with (GGGGS)4-peptidic linker and C-terminal His(10)-Avi-tag) (human) (UniProt P61769); assay: SPR, scFcRn on C1 chip, Interaction Map spot; 400 mM NaCl; intermolecular, second of two spots
[17] = biological target: biotinylated single chain human FcRn (beta-2-microglobulin-human FcRn fusion polypeptide with (GGGGS)4-peptidic linker and C-terminal His(10)-Avi-tag) (human) (UniProt P61769); assay: SPR, scFcRn on C1 chip, Interaction Map spot; 400 mM NaCl; intermolecular, first of two spots
[18] = biological target: biotinylated single chain human FcRn (beta-2-microglobulin-human FcRn fusion polypeptide with (GGGGS)4-peptidic linker and C-terminal His(10)-Avi-tag) (human) (UniProt P61769); assay: SPR, C1 chip, scFcRn about 80 RU, Interaction Map spot; 400 mM NaCl; intermolecular binding 1+2′
[19] = biological target: biotinylated single chain human FcRn (beta-2-microglobulin-human FcRn fusion polypeptide with (GGGGS)4-peptidic linker and C-terminal His(10)-Avi-tag) (human) (UniProt P61769); assay: SPR, C1 chip, scFcRn about 80 RU, Interaction Map spot; 400 mM NaCl and 20% (w/w) ethylene glycol; intramolecular binding 1+2
[20] = biological target: biotinylated single chain human FcRn (beta-2-microglobulin-human FcRn fusion polypeptide with (GGGGS)4-peptidic linker and C-terminal His(10)-Avi-tag) (human) (UniProt P61769); assay: SPR, C1 chip, scFcRn about 80 RU, Interaction Map spot; 400 mM NaCl and 20% (w/w) ethylene glycol; intermolecular binding 1+1′

Sequence of biotinylated single chain human FcRn (beta-2-microglobulin-human FcRn fusion polypeptide with (GGGGS)4-peptidic linker and C-terminal His(10)-Avi-tag) (human) (P61769 other isoform, or with tags, fused parts or gaps limits assumed): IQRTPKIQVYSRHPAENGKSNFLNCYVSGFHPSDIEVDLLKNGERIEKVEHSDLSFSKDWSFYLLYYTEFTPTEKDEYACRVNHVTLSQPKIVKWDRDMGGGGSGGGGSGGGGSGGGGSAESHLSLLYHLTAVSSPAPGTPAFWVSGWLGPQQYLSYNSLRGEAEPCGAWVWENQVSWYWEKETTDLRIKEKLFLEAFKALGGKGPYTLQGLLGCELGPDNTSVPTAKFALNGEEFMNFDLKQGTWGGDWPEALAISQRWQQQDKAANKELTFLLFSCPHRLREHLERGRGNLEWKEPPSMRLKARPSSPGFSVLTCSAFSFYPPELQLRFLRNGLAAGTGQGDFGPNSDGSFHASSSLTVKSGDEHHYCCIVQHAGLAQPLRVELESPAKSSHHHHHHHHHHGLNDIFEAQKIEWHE

Substance	Kd [1] [nM]	Kd [2] [nM]	Kd [3] [nM]	Kd [4] [nM]	Kd [5] [nM]	Kd [6] [nM]	Kd [7] [nM]	Kd [13] [nM]	Kd [14] [nM]	Kd [15] [nM]	also measured
anti-digoxygenin Fabs connected to an IgG1 Fc-region with the mutations M252Y/S254T/T256E in both Fc-region polypeptides (from UniProt P01857 104-330) (antibody)	92	92	1.6								
anti-digoxygenin Fabs connected to an IgG1 Fc-region with the mutations T307H/N434H in both Fc-region polypeptides (from UniProt P01857 104-330) (antibody)	177	156	0.13	71	25	0.12	3				
anti-digoxygenin-Fabs added to the Fc-region with a single FcRn binding site (mutations I253A/H310A/H435A in one Fc-region polypeptide and wild-type in the respective other Fc-region polypeptide) (from UniProt P01857 104-330; P01857 104-330) (antibody)											Kd [8]: 1250 nM; Kd [9]: 20.5 nM; Kd [10]: 60 nM; Kd [11]: 1060 nM
asymmetric antibody with the mutations I253A/H310A/H435A in one Fc-region polypeptide and the mutations M252Y/S254T/T256E in the respective other Fc-region polypeptide (from UniProt P01857 104-330; P01857 104-330)								166	4.7	184	Kd [12]: 6.2 nM
asymmetric antibody with the mutations I253A/H310A/H435A in one Fc-region polypeptide and the mutations T307H/N434H in the respective other Fc-region polypeptide (from UniProt P01857 104-330; P01857 104-330)								325	10.4	391	Kd [16]: 39 nM; Kd [17]: 4.3 nM
anti-digoxygenin Fabs connected to a wild-type IgG1 Fc-region (from UniProt P01857 104-330) (antibody)	382	840	0.33	126	100	0.16	5.7				Kd [18]: 4.8 nM; Kd [19]: 1140 nM; Kd [20]: 75 nM
